15 substances from patent US8551493B2, “Peptide with reduced dimer formation” (Circassia Limited, priority 2007, dated 2013) can be followed below.

Where no end group is shown, it is not given here. [ ]: non-standard residue; d: D form. Abu = CC[C@H](N)C(=O)O

Series [1] is described as follows: Dimer formation of individual peptides and binary peptide mixtures, RP-HPLC. It counts as physicochemical. On the procedure:
The peptides used in this study have a minimum purity of >90%. The effectiveness of each additive to reduce dimer formation was assessed by size exclusion chromatography (SEC) and RP-HPLC. In SEC, molecules are separated based upon their apparent molecular weight. Smaller molecules can distribute into a greater proportion of the column matrix and are retained for longer than analytes of higher molecular weight. Dimers will elute from the column with an apparent molecular weight approximately twice that of the corresponding monomers. Separation by RP-HPLC separates species based on differences in their hydrophobicities. The amount of dimer formed is determined as a percentage of the total peak area ratio (% PAR) for the chromatogram.
Following the generation of data from the preliminary screening a further piece of work was undertaken to evaluate the ability of matrices containing Cysteine hydrochloride and 1-thioglycerol to inhibit the propensity of individual cysteine containing peptides and mixed pairs of these peptides to dimerize compared to the matrix alone. For each excipient mixtures of all the possible binary peptide combinations were prepared. […] The amount of dimer formed is determined as a percentage of the total peak area ratio (% PAR) for the chromatogram in each case.

Series [2] has as its system PBMCs. Put plainly: IL10 production assay in house dust mite allergic individuals (FIG. 1). It counts as cell-based, human. To be noted: population of 34 house dust mite allergic individuals.
Method: A typical cytokine release assay requires 40×10^6 PBMC's per subject. In more detail, 250 μl of a 200 μg/ml solution of the appropriate antigen or peptide concentration is distributed into the appropriate wells of 48 well plates. Plates are the incubated in a humidified 5% CO2 incubator at 37° C. for a maximum of 4 hours. 250 μl of a 5×10^6 cell/ml PBMC suspension is then added to each well and the plates returned to the incubator for 5 days. Following stimulation, samples of culture supernatant are harvested for testing by ELISA or multiplex bead assay according to standard protocols.
Series [3] deals with PBMCs. Briefly: Cytokine release assay (IFN-γ, IL-13) on PBMCs from house dust mite allergic individuals. In kind it is cell-based, human. To be noted: number of responders, N = 55 house dust mite allergic individuals; positive = at least 100 pg/ml of cytokine. From the text:
The following Table presents results from a cytokine release assay performed on PBMCs taken from a population of house dust mite allergic individuals (N=number of individuals in population). A positive response is considered to be production of at least 100 pg/ml of cytokine.

Series [4] deals with PBMCs. Briefly: IL-10 cytokine release assay on PBMCs from seven ragweed allergic individuals. In kind it is cell-based, human. The following applies: for IL-10: ragweed allergic, PBMC supernatant. The source says:
The following Table presents results from a cytokine release assay performed on PBMCs taken from seven ragweed allergic individuals (A-G).

The subject of series [5] is PBMCs. Briefly: IFN-gamma production by PBMCs from ragweed allergic individuals (FIG. 2). In kind it is cell-based, human. To be noted: PBMCs from a population of ragweed allergic individuals. On the procedure:
Using methods equivalent to those in Example 2, these peptides were tested for the ability to induce cytokine production in PBMCs taken from a population of ragweed allergic individuals.

[6] abbreviates: T = 0, Control matrix, individual peptide sample.
Setting [7] is: T = 0, Control matrix, mixed sample MLA01 and MLA05.
Where [8] appears, read: T = 1 week, 25° C./60% RH, Control matrix, individual peptide sample.
Setting [9] is: T = 1 week, 25° C./60% RH, Control matrix, mixed sample MLA01 and MLA04.
The mark [10] stands for this setting: T = 1 week, 25° C./60% RH, Control matrix, mixed sample MLA01 and MLA05.
Setting [11] is: T = 1 week, 25° C./60% RH, Control matrix, mixed sample MLA01 and MLA12.
[12] abbreviates: T = 1 week, 25° C./60% RH, Cysteine matrix, mixed sample MLA01 and MLA12.
[13] abbreviates: T = 72 h, Control matrix, individual peptide sample.
[14] abbreviates: T = 72 h, Control matrix, mixed sample MLA01 and MLA04.
Where [15] appears, read: T = 72 h, Control matrix, mixed sample MLA01 and MLA05.
Setting [16] is: T = 72 h, Control matrix, mixed sample MLA01 and MLA12.
Where [17] appears, read: T = 1 week, 25° C./60% RH, Control matrix, mixed sample MLA04 and MLA05.
The mark [18] stands for this setting: T = 1 week, 25° C./60% RH, Control matrix, mixed sample MLA04 and MLA12.
[19] abbreviates: T = 72 h, Control matrix, mixed sample MLA04 and MLA05.
Where [20] appears, read: T = 72 h, Control matrix, mixed sample MLA04 and MLA12.
The mark [21] stands for this setting: T = 1 week, 25° C./60% RH, Control matrix, mixed sample MLA05 and MLA12.
The mark [22] stands for this setting: T = 72 h, Control matrix, mixed sample MLA05 and MLA12.

“CPAVKRDVDLFLT (listed as Felis catus) [MLA01, derived from cat allergen Fel d1]”: the “Percentage peak area ratio (% PAR), dimers formed” value (shortened to “Percentage peak area ratio (% PAR)”) in series [1] (setting [6]) turned out to be 3.85 % PAR; in series [1] (T = 0, Control matrix, mixed sample MLA01 and MLA04), 2.92 % PAR; in series [1] (setting [7]) it was 2.73 % PAR; in series [1] (T = 0, Control matrix, mixed sample MLA01 and MLA12) it was 2.7 % PAR; in series [1] (T = 0, Cysteine matrix, individual peptide sample) it was 0.49 % PAR; in series [1] (T = 0, Cysteine matrix, mixed sample MLA01 and MLA04) it was 0.48 % PAR. Besides, the “Percentage peak area ratio (% PAR)” value is 0.73 % PAR in series [1] (T = 0, Cysteine matrix, mixed sample MLA01 and MLA05); 0.2 % PAR in series [1] (T = 0, Cysteine matrix, mixed sample MLA01 and MLA12); 66.81 % PAR in series [1] (setting [8]); 39.49 % PAR in series [1] (setting [9]); 45.59 % PAR in series [1] (setting [10]); 40.03 % PAR in series [1] (setting [11]). Also, the “Percentage peak area ratio (% PAR)” value is recorded as 0.52 % PAR in series [1] (T = 1 week, 25° C./60% RH, Cysteine matrix, mixed sample MLA01 and MLA04); 0.26 % PAR in series [1] (T = 1 week, 25° C./60% RH, Cysteine matrix, mixed sample MLA01 and MLA05); 0.23 % PAR in series [1] (setting [12]); 43.81 % PAR in series [1] (setting [13]); 35.47 % PAR in series [1] (setting [14]); 41.11 % PAR in series [1] (setting [15]). In addition, the “Percentage peak area ratio (% PAR)” value in series [1] (setting [16]) was determined as 29.62 % PAR.
Turning to “HDM203B: house dust mite Der p1 derived peptide of the HDM203 family tested for IL10 production (DLRQMRTVTPIRMQGGSGS; HDM203B* synthetic peptide)”, the “IL10 production, engineered versus non-engineered peptides” value in the series with PBMCs [2] was “not significantly different”.
Turning to “KALPVVLENARILKNCV (listed as Felis catus) [MLA04, derived from cat allergen Fel d1]”, the “Percentage peak area ratio (% PAR)” value in series [1] (setting [8]) was determined as 4.76 % PAR; in series [1] (setting [9]), 2.71 % PAR; in series [1] (setting [17]), 2.32 % PAR; in series [1] (setting [18]), 2.42 % PAR; in series [1] (setting [13]), 2.51 % PAR; in series [1] (setting [14]), 1.32 % PAR. Further, the “Percentage peak area ratio (% PAR)” value in series [1] (setting [19]) came out at 0.91 % PAR; in series [1] (setting [20]), 0.44 % PAR.
For “NAQRFGISNYBQI (NAQRFGISNY[Abu]QI) [HDM102B, B=2-aminobutyric acid]”, in the series with PBMCs [3], the “Responders with IFN-g >100” value is 15 and the “Responders with IL-13 >100” value is reported as 17.
In the same order, the values of NAQRFGISNYCQI [HDM102] are 16 and 13.
In the same order, the values of NAQRFGISNYSQI [HDM102A] are 14 and 16.
Turning to “NYBQIYPPNVNKIREA (NY[Abu]QIYPPNVNKIREA) [HDM101B, B=2-aminobutyric acid]”, in the series on PBMCs [3], the “Responders with IFN-g >100” value turned out to be 1 and the “Responders with IL-13 >100” value turned out to be 2.
Taken in the same sequence, the figures for NYCQIYPPNVNKIREA [HDM101] were 2 and 1.
Consider NYSQIYPPNVNKIREA [HDM101A], for which, in the series with PBMCs [3], the “Responders with IFN-g >100” value came to 4 and the “Responders with IL-13 >100” value turned out to be 4.
On to “RFGISNYBQIYPPNVNK (RFGISNY[Abu]QIYPPNVNK) [HDM100B, B=2-aminobutyric acid]”, for which, in the series with PBMCs [3], the “Responders with IFN-g >100” value is listed as 6 and the “Responders with IL-13 >100” value is reported as 10.
Take RFGISNYCQIYPPNVNK [HDM100]: in the series on PBMCs [3], the “Responders with IFN-g >100” value worked out at 6 and the “Responders with IL-13 >100” value is listed as 6.
In the case of RFGISNYSQIYPPNVNK [HDM100A], in the series on PBMCs [3], the “Responders with IFN-g >100” value amounted to 10 and the “Responders with IL-13 >100” value is listed as 8.
As to “RGW02: engineered (modified) peptide derived from ragweed pollen major allergen Amb a 1 (GSSQIWIDHSSLSKS; RGW02* synthetic peptide)”, the “IL-10” value with PBMCs [4] (Subject A) was found to be 248.91 pg/mL; in the series on PBMCs [4] (Subject B), 227.18 pg/mL; with PBMCs [4] (Subject C), 452.45 pg/mL; with PBMCs [4] (Subject D), 80.54 pg/mL; with PBMCs [4] (Subject E), 310.34 pg/mL; in the series with PBMCs [4] (Subject F), 203.12 pg/mL. Further, the “IL-10” value in the series on PBMCs [4] (Subject G) stood at 283.75 pg/mL. Besides, the “level of production of IL-10 compared with the original peptide (RGW02A)” value with PBMCs [4] (seven ragweed allergic individuals (A-G)) is “not significantly different”. The “IFN-gamma production compared with the non-engineered peptide” value in the series on PBMCs [5] was “does not induce significantly different responses”.
As for “RILKNCVDAKMTEEDKE (listed as Felis catus) [MLA05, derived from cat allergen Fel d1]”, the “Percentage peak area ratio (% PAR)” value in series [1] (setting [6]) was found to be 0.55 % PAR; in series [1] (setting [7]) it was 0.35 % PAR; in series [1] (setting [8]) it was 1.65 % PAR; in series [1] (setting [10]), 3.18 % PAR; in series [1] (setting [17]), 3.26 % PAR; in series [1] (setting [21]), 1.85 % PAR. Besides, the “Percentage peak area ratio (% PAR)” value in series [1] (T = 1 week, 25° C./60% RH, Cysteine matrix, individual peptide sample) turned out to be 0.21 % PAR; in series [1] (setting [13]), 1.99 % PAR; in series [1] (setting [15]), 2.21 % PAR; in series [1] (setting [19]), 2.25 % PAR; in series [1] (setting [22]), 8.17 % PAR.
Consider “TAMKKIQDCYVENGLI (listed as Felis catus) [MLA12, derived from cat allergen Fel d1]”, for which the “Percentage peak area ratio (% PAR)” value in series [1] (setting [8]) was 1.72 % PAR; in series [1] (setting [11]), 3.43 % PAR; in series [1] (setting [18]) it was 2.13 % PAR; in series [1] (setting [21]), 1.28 % PAR; in series [1] (setting [12]), 0.18 % PAR; in series [1] (T = 1 week, 25° C./60% RH, Cysteine matrix, mixed sample MLA04 and MLA12), 0.32 % PAR. Besides, the “Percentage peak area ratio (% PAR)” value in series [1] (setting [13]) worked out at 0.46 % PAR; in series [1] (setting [16]) it was 2.09 % PAR; in series [1] (setting [20]) it was 1.1 % PAR; in series [1] (setting [22]), 9.78 % PAR; in series [1] (T = 72 h, Cysteine matrix, mixed sample MLA01 and MLA12) it was 0.1 % PAR; in series [1] (T = 72 h, Cysteine matrix, mixed sample MLA04 and MLA12), 0.33 % PAR.
